Test system: ACE-2 inhibitor peptide (the most active ACE-2 inhibitor peptide)

| Substance | conversion of angiotensin I to A1-9 by ACE-2 | hydrolysis of the substrate hip-his-leu (250 mM) by ACE (1.5 nM) |
| --- | --- | --- |
| recombinant human ACE-2 | This peptide also inhibited conversion of angiotensin I to A1-9 by ACE-2 | – |
| Angiotensin converting enzyme (ACE) | – | the inhibitor did not affect the hydrolysis of the substrate, hip-his-leu (250 mM) by ACE (1.5 nM), even at 25 mM |

Reference: patent US20030091557
